Reference: the supplement of paper PMC5998384

How the values were obtained:
HeLa Kyoto [1] = assay: solubility in G1/S (NP-40 vs SDS abundance) (log2 ratio); higher = more soluble; details: cell cycle stage: G1/S
HeLa Kyoto [2] = assay: melting temperature (median over replicates), in situ; higher = more thermally stable
HeLa Kyoto [3] = assay: solubility change mitosis vs G1/S (difference of NP-40 vs SDS log2 ratios) (log2 ratio difference); higher = more soluble in mitosis
HeLa Kyoto [4] = assay: thermal stability score vs G1/S (z-score of summed log2 fold changes over temperatures); higher = more thermally stable than in G1/S
[5] = cell cycle stage: early G1 (4.5 h after nocodazole release)
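Throughout, for melting temperature (median over replicates), in situ: HeLa Kyoto cells synchronized by double thymidine or nocodazole block, proteins quantified by TMT10plex mass spectrometry, three independent biological replicates.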
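Throughout, for solubility change mitosis vs G1/S (difference of NP-40 vs SDS log2 ratios): synchronized HeLa Kyoto cells (double thymidine block for G1/S, nocodazole release for mitosis), protein amounts in NP-40 versus SDS lysates quantified by mass spectrometry, three biological replicates.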
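Throughout, for solubility in G1/S (NP-40 vs SDS abundance): HeLa Kyoto cells arrested at G1/S by double thymidine block, proteins quantified by TMT10plex mass spectrometry in mild NP-40 versus SDS extracts, three biological replicates.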
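Throughout, for thermal stability score vs G1/S (z-score of summed log2 fold changes over temperatures): synchronized HeLa Kyoto cells, proteins quantified by TMT10plex mass spectrometry, three biological replicates, mitosis taken 0.5 h after nocodazole release, G1/S directly after double thymidine block.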

Sequence of MMTAG2 (chain, as listed by the source): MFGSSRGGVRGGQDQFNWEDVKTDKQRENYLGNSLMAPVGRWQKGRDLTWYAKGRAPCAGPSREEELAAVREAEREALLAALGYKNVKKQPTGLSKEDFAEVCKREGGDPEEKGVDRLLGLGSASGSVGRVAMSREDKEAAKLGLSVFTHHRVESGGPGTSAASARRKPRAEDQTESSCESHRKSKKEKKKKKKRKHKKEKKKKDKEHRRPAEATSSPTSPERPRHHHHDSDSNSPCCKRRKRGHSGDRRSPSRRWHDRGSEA

| Substance | solubility in G1/S (log2) (HeLa Kyoto [1]) | melting temperature (HeLa Kyoto [2]; cell cycle stage: G1/S) [°C] | melting temperature (HeLa Kyoto [2]; cell cycle stage: mitosis) [°C] | solubility change mitosis (log2) (HeLa Kyoto [3]) | thermal stability score (HeLa Kyoto [4]; [5]) | thermal stability score (HeLa Kyoto [4]; cell cycle stage: mitosis) |
| --- | --- | --- | --- | --- | --- | --- |
| MMQGEAHPSASLIDRTIKMRKETEARKVVLAWGLLNVSMAGMIYTEMTGKLISSYYNVTYWPLWYIELALASLFSLNALFDFWRYFKYTVAPTSLVVSPGQQTLLGLKTAVVQTTPPHDLAATQIPPAPPSPSIQGQSVLSYSPSRSPSTSPKFTTSCMTGYSPQLQGLSSGGSGSYSPGVTYSPVSGYNKLASFSPSPPSPYPTTVGPVESSGLRSRYRSSPTVYNSPTDKEDYMTDLRTLDTFLRSEEEKQHRVKLGSPDSTSPSSSPTFWNYSRSMGDYAQTLKKFQYQLACRSQAPCANKDEADLSSKQAAEEVWARVAMNRQLLDHMDSWTAKFRNWINETILVPLVQEIESVSTQMRRMGCPELQIGEASITSLKQAALVKAPLIPTLNTIVQYLDLTPNQEYLFERIKELSQGGCMSSFRWNRGGDFKGRKWDTDLPTDSAIIMHVFCTYLDSRLPPHPKYPDGKTFTSQHFVQTPNKPDVTNENVFCIYQSAINPPHYELIYQRHVYNLPKGRNNMFHTLLMFLYIIKTKESGMLGRVNLGLSGVNILWIFGE [TMEM209] | 0.161 | 52 | 53.2 | -0.145 | 0.688 | 3.82 |
| MMSDASDMLAAALEQMDGIIAGSKALEYSNGIFDCQSPTSPFMGSLRALHLVEDLRGLLEMMETDEKEGLRCQIPDSTAETLVEWLQSQMTNGHLPGNGDVYQERLARLENDKESLVLQVSVLTDQVEAQGEKIRDLEFCLEEHREKVNATEEMLQQELLSRTSLETQKLDLMAEISNLKLKLTAVEKDRLDYEDKFRDTEGLIQEINDLRLKVSEMDSERLQYEKKLKSTKSLMAKLSSMKIKVGQMQYEKQRMEQKWESLKDELASLKEQLEEKESEVKRLQEKLVCKMKGEGVEIVDRDIEVQKMKKAVESLMAANEEKDRKIEDLRQCLNRYKKMQDTVVLAQGKDGEYEELLNSSSISSLLDAQGFSDLEKSPSPTPVMGSPSCDPFNTSVPEEFHTTILQVSIPSLLPATVSMETSEKSKLTPKPETSFEENDGNIILGATVDTQLCDKLLTSSLQKSSSLGNLKKETSDGEKETIQKTSEDRAPAESRPFGTLPPRPPGQDTSMDDNPFGTRKVRSSFGRGFFKIKSNKRTASAPNLAETEKETAEHLDLAGASSRPKDSQRNSPFQIPPPSPDSKKKSRGIMKLFGKLRRSQSTTFNPDDMSEPEFKRGGTRATAGPRLGWSRDLGQSNSDLDMPFAKWTKEQVCNWLMEQGLGSYLNSGKHWIASGQTLLQASQQDLEKELGIKHSLHRKKLQLALQALGSEEETNHGKLDFNWVTRWLDDIGLPQYKTQFDEGRVDGRMLHYMTVDDLLSLKVVSVLHHLSIKRAIQVLRINNFEPNCLRRRPSDENTIAPSEVQKWTNHRVMEWLRSVDLAEYAPNLRGSGVHGGLMVLEPRFNVETMAQLLNIPPNKTLLRRHLATHFNLLIGAEAQHQKRDAMELPDYVLLTATAKVKPKKLAFSNFGNLRKKKQEDGEEYVCPMELGQASGSASKKGFKPGLDMRLYEEDDLDRLEQMEDSEGTVRQIGAFSEGINNLTHMLKEDDMFKDFAARSPSASITDEDSNV [PPFIBP1] | 0.425 | 49.4 | 49 | -0.0985 | 0.0729 | 0.352 |
| MMSQSSGSGDGNDDEATTSKDGGFSSPSPSAAAAAQEVRSATDGNTSTTPPTSAKKRKLNSSSSSSSNSSNEREDFDSTSSSSSTPPLQPRDSASPSTSSFCLGVSVAASSHVPIQKKLRFEDTLEFVGFDAKMAEESSSSSSSSSPTAATSQQQQLKNKSILISSVASVHHANGLAKSSTTVSSFANSKPGSAKKLVIKNFKDKPKLPENYTDETWQKLKEAVEAIQNSTSIKYNLEELYQAVENLCSYKISANLYKQLRQICEDHIKAQIHQFREDSLDSVLFLKKIDRCWQNHCRQMIMIRSIFLFLDRTYVLQNSMLPSIWDMGLELFRAHIISDQKVQNKTIDGILLLIERERNGEAIDRSLLRSLLSMLSDLQIYQDSFEQRFLEETNRLYAAEGQKLMQEREVPEYLHHVNKRLEEEADRLITYLDQTTQKSLIATVEKQLLGEHLTAILQKGLNNLLDENRIQDLSLLYQLFSRVRGGVQVLLQQWIEYIKAFGSTIVINPEKDKTMVQELLDFKDKVDHIIDICFLKNEKFINAMKEAFETFINKRPNKPAELIAKYVDSKLRAGNKEATDEELEKMLDKIMIIFRFIYGKDVFEAFYKKDLAKRLLVGKSASVDAEKSMLSKLKHECGAAFTSKLEGMFKDMELSKDIMIQFKQYMQNQNVPGNIELTVNILTMGYWPTYVPMEVHLPPEMVKLQEIFKTFYLGKHSGRKLQWQSTLGHCVLKAEFKEGKKELQVSLFQTLVLLMFNEGEEFSLEEIKQATGIEDGELRRTLQSLACGKARVLAKNPKGKDIEDGDKFICNDDFKHKLFRIKINQIQMKETVEEQASTTERVFQDRQYQIDAAIVRIMKMRKTLSHNLLVSEVYNQLKFPVKPADLKKRIESLIDRDYMERDKENPNQYNYIA [CUL4B] | 0.0519 | 54.6 | 54.4 | -0.261 | -1.29 | -1.57 |
| MMTAG2 | -1.03 | 53 | 51.3 | 0.48 | -3.08 | -5.63 |
| MMTSVGTNRARGNWEQPQNQNQTQHKQRPQATAEQIRLAQMISDHNDADFEEKVKQLIDITGKNQDECVIALHDCNGDVNRAINVLLEGNPDTHSWEMVGKKKGVSGQKDGGQTESNEEGKENRDRDRDYSRRRGGPPRRGRGASRGREFRGQENGLDGTKSGGPSGRGTERGRRGRGRGRGGSGRRGGRFSAQGMGTFNPADYAEPANTDDNYGNSSGNTWNNTGHFEPDDGTSAWRTATEEWGTEDWNEDLSETKIFTASNVSSVPLPAENVTITAGQRIDLAVLLGKTPSTMENDSSNLDPSQAPSLAQPLVFSNSKQTAISQPASGNTFSHHSMVSMLGKGFGDVGEAKGGSTTGSQFLEQFKTAQALAQLAAQHSQSGSTTTSSWDMGSTTQSPSLVQYDLKNPSDSAVHSPFTKRQAFTPSSTMMEVFLQEKSPAVATSTAAPPPPSSPLPSKSTSAPQMSPGSSDNQSSSPQPAQQKLKQQKKKASLTSKIPALAVEMPGSADISGLNLQFGALQFGSEPVLSDYESTPTTSASSSQAPSSLYTSTASESSSTISSNQSQESGYQSGPIQSTTYTSQNNAQGPLYEQRSTQTRRYPSSISSSPQKDLTQAKNGFSSVQATQLQTTQSVEGATGSAVKSDSPSTSSIPPLNETVSAASLLTTTNQHSSSLGGLSHSEEIPNTTTTQHSSTLSTQQNTLSSSTSSGRTSTSTLLHTSVESEANLHSSSSTFSTTSSTVSAPPPVVSVSSSLNSGSSLGLSLGSNSTVTASTRSSVATTSGKAPPNLPPGVPPLLPNPYIMAPGLLHAYPPQVYGYDDLQMLQTRFPLDYYSIPFPTPTTPLTGRDGSLASNPYSGDLTKFGRGDASSPAPATTLAQPQQNQTQTHHTTQQTFLNPALPPGYSYTSLPYYTGVPGLPSTFQYGPAVFPVAPTSSKQHGVNVSVNASATPFQQPSGYGSHGYNTGVSVTSSNTGVPDISGSVYSKTQQSFEKQGFHSGTPAASFNLPSALGSGGPINPATAAAYPPAPFMHILTPHQQPHSQILHHHLQQDGQTGSGQRSQTSSIPQKPQTNKSAYNSYSWGAN [UBAP2L] | -0.0783 | 55.5 | 54.2 | 0.0243 | -3.92 | -3.52 |
